B1: RAC-beta serine/threonine-protein kinase (Homo sapiens), P31751 (parent)
chain: MNEVSVIKEGWLHKRGEYIKTWRPRYFLLKSDGSFIGYKERPEAPDQTLPPLNNFSVAECQLMKTERPRPNTFVIRCLQWTTVIERTFHVDSPDEREEWMRAIQMVANSLKQRAPGEDPMDYKCGSPSDSSTTEEMEVAVSKARAKVTMNDFDYLKLLGKGTFGKVILVREKATGRYYAMKILRKEVIIAKDEVAHTVTESRVLQNTRHPFLTALKYAFQTHDRLCFVMEYANGGELFFHLSRERVFTEERARFYGAEIVSALEYLHSRDVVYRDIKLENLMLDKDGHIKITDFGLCKEGISDGATMKTFCGTPEYLAPEVLEDNDYGRAVDWWGLGVVMYEMMCGRLPFYNQDHERLFELILMEEIRFPRTLSPEAKSLLAGLLKKDPKQRLGGGPSDAKEVMEHRFFLSINWQDVVQKKLLPPFKPQVTSEVDTRYFDDEFTAQSITITPPDRYDSLGLLELDQRTHFPQFSYSASIRE

Variants of: B1
Conditions: with ttc3_human TTC3, P53804
Sequence of ttc3_human TTC3, P53804 (P53804 whole entry): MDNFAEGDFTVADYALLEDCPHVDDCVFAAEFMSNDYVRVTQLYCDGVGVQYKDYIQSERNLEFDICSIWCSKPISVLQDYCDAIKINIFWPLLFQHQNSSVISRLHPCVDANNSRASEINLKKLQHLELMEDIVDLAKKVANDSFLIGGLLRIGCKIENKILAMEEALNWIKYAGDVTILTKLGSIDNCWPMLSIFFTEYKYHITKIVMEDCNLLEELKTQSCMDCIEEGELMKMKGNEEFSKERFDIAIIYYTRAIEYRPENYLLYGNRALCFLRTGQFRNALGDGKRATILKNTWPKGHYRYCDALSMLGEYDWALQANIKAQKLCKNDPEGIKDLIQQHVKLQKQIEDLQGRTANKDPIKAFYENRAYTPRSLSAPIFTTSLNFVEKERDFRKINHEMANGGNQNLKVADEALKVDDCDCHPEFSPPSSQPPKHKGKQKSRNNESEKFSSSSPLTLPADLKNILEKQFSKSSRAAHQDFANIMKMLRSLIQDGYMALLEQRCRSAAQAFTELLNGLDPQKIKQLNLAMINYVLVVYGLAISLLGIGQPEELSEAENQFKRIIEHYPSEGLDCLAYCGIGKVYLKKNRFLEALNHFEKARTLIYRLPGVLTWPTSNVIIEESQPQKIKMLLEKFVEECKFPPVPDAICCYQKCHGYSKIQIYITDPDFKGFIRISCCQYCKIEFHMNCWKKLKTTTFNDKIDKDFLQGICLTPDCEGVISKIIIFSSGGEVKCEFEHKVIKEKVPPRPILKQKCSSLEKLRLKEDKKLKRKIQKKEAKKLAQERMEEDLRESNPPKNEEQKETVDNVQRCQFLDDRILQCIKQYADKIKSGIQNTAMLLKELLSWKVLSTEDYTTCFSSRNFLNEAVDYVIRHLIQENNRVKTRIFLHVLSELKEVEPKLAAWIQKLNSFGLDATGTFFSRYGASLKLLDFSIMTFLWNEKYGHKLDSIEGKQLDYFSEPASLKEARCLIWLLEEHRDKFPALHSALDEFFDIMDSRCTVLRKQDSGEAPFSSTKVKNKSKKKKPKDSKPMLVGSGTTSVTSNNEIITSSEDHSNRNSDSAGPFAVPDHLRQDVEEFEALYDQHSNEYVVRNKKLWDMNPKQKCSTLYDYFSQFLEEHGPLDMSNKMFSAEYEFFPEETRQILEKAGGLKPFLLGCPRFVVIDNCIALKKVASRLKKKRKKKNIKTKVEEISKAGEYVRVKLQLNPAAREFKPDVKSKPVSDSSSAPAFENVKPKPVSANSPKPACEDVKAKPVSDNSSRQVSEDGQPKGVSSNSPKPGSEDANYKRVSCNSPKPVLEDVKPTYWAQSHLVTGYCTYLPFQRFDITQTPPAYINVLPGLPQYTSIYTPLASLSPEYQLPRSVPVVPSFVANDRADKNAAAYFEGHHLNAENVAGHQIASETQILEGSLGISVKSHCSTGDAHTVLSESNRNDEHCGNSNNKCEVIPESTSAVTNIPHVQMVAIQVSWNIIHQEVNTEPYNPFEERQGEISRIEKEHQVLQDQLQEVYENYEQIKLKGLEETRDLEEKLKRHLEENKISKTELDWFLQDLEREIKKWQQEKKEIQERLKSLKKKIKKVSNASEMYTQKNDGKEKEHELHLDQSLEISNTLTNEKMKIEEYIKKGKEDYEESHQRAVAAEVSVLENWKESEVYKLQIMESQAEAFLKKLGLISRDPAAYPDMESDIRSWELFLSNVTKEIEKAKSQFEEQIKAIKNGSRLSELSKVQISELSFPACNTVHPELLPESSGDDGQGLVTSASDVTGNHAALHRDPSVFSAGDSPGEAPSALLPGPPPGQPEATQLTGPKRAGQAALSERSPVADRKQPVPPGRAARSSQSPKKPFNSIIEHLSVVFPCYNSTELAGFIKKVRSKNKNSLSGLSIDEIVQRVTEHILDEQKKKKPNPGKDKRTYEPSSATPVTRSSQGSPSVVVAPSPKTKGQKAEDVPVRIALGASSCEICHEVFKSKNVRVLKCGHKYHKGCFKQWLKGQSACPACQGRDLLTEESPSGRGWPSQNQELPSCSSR

| Variant | effect of a mutation on the interaction |
| --- | --- |
| MNEVSVIKEGWLHKRGEYIKTWRPRYFLLKSDGSFIGYKERPEAPDQTLPPLNNFSVAECQLMKTERPRPNTFVIRCLQWTTVIERTFHVDSPDEREEWMRAIQMVANSLKQRAPGEDPMDYKCGSPSDSSTTEEMEVAVSKARAKVTMNDFDYLKLLGKGTFGKVILVREKATGRYYAMKILRKEVIIAKDEVAHTVTESRVLQNTRHPFLTALKYAFQTHDRLCFVMEYANGGELFFHLSRERVFTEERARFYGAEIVSALEYLHSRDVVYRDIKLENLMLDKDGHIKITDFGLCKEGISDGATMKAFCGTPEYLAPEVLEDNDYGRAVDWWGLGVVMYEMMCGRLPFYNQDHERLFELILMEEIRFPRTLSPEAKSLLAGLLKKDPKQRLGGGPSDAKEVMEHRFFLSINWQDVVQKKLLPPFKPQVTSEVDTRYFDDEFTAQSITITPPDRYDSLGLLELDQRTHFPQFAYSASIRE [T309A;S474A] | disrupting interaction strength |
